Data reported in patent US20170137467A1 (CHROMOTEK, published 2017).
Square brackets hold non-standard residues; d marks the D form. GABA = NCCCC(=O)O

Columns and labels:
[1] = target: T1, BC2T W10L peptide (BC2TW10X library) (human); experiment: BC2TW10X library pulldown with immobilized Nb, LC-MS of the supernatant
T1 construct: Isobaric with the isoleucine peptide; also called W10 permutant L
T1 peptide: Ac-PDRKAAVSHLQQ-NH2
Protocol: (§1) To investigate the binding specificity of the BC2T and derived mutants peptide libraries for each amino acid position of the sequence […] (SEQ ID NO:4) were synthesized with acetyl and amide groups located at the N-termini or C-termini respectively (Intavis). […] Incubations were performed in 300 μl PBS/0.01% CHAPS for 1 h on a HulaMixer (Life Technologies). Subsequent to a centrifugation step 10 μl supernatant were analyzed in a LC-MS procedure. Peptides were separated using an UltiMate3000 RSLCnano System (Thermo Scientific), composed of a C18 PepMap100μ-Precolumn (300 μm×5 mm; particle size: 5 μm; pore size: 100 Å—Thermo Scientific) and a C18 analytical column (Acclaim Rapid Separation LC (RSLC) Column: 150 mm×5 mm; particle size: 2.2 μm; pore size: 100 Å—Thermo Scientific). A step gradient was applied starting at 8% and ending after 20 min at 30% eluent B (80% acetonitrile, 20% H₂O, 0.1% formic acid). Peptides were analyzed using a FULL-MS-strategy detected by a Q Exactive Plus mass spectrometer (Thermo Scientific). As maximal injection time 100 ms was chosen while setting the AGC target to 3E6. The resolution was set to 70.000. Half-maximal signal areas were referenced to control precipitation approaches using a GFP-specific nanobody immobilized on agarose beads. All experiments were done in triplicates.

[2] = target: T2, BC2T W10E peptide (BC2TW10X library) (human); experiment: as above
T2 construct: also called W10 permutant E
T2 peptide: Ac-PDRKAAVSHEQQ-NH2
Protocol: as §1

[3] = target: T3, BC2T W10C peptide (BC2TW10X library) (human, also: Abu described as gamma-amino butyric acid); experiment: as above
T3 construct: also called W10 permutant C(Abu)
T3 peptide: Ac-PDRKAAVSH[GABA]QQ-NH2
Protocol: as §1

[4] = target: T4, BC2T W10Y peptide (BC2TW10X library) (human); experiment: as above
T4 construct: also called W10 permutant Y
T4 peptide: Ac-PDRKAAVSHYQQ-NH2
Protocol: as §1

[5] = target: T5, BC2T W10N peptide (BC2TW10X library) (human); experiment: as above
T5 construct: also called W10 permutant N
T5 peptide: Ac-PDRKAAVSHNQQ-NH2
Protocol: as §1

[6] = target: T6, BC2T W10P peptide (BC2TW10X library) (human); experiment: as above
T6 construct: also called W10 permutant P
T6 peptide: Ac-PDRKAAVSHPQQ-NH2
Protocol: as §1

[7] = target: T7, BC2T W10Q peptide (BC2TW10X library) (human); experiment: as above
T7 construct: also called W10 permutant Q
T7 peptide: Ac-PDRKAAVSHQQQ-NH2
Protocol: as §1

[8] = target: T8, BC2T W10V peptide (BC2TW10X library) (human); experiment: as above
T8 construct: also called W10 permutant V
T8 peptide: Ac-PDRKAAVSHVQQ-NH2
Protocol: as §1

[9] = target: T9, BC2T W10F peptide (BC2TW10X library) (human); experiment: as above
T9 construct: also called W10 permutant F
T9 peptide: Ac-PDRKAAVSHFQQ-NH2
Protocol: as §1

[10] = target: T10, BC2T W10T peptide (BC2TW10X library) (human); experiment: as above
T10 construct: also called W10 permutant T
T10 peptide: Ac-PDRKAAVSHTQQ-NH2
Protocol: as §1

[11] = target: T11, BC2T W10S peptide (BC2TW10X library) (human); experiment: as above
T11 construct: also called W10 permutant S
T11 peptide: Ac-PDRKAAVSHSQQ-NH2
Protocol: as §1

[12] = target: T12, BC2T W10I peptide (BC2TW10X library) (human); experiment: as above
T12 construct: Isobaric with the leucine peptide; also called W10 permutant I
T12 peptide: Ac-PDRKAAVSHIQQ-NH2
Protocol: as §1

[13] = target: T13, BC2T W10D peptide (BC2TW10X library) (human); experiment: as above
T13 construct: also called W10 permutant D
T13 peptide: Ac-PDRKAAVSHDQQ-NH2
Protocol: as §1

[14] = target: T14, BC2T W10A peptide (BC2TW10X library) (human); experiment: as above
T14 construct: also called W10 permutant A
T14 peptide: Ac-PDRKAAVSHAQQ-NH2
Protocol: as §1

BC2T A6P = target: T15, BC2T A6P; experiment: positional peptide library pulldown on immobilised Nb, LC-MS of supernatant; signal ratio to control GFP-Nb (1 = not captured, near 0 = captured)
T15 construct: positional scanning library member
T15 peptide: Ac-PDRKAPVSHWQQ-NH2
Summary of the method: (§2)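 Unbound peptide left in supernatant after 1 h pulldown in PBS/0.01% CHAPS measured by reversed-phase LC-MS (8–30% eluent B gradient, 20 min).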

BC2T K4F = target: T16, BC2T K4F; experiment: as above
T16 construct: positional scanning library member
T16 peptide: Ac-PDRFAAVSHWQQ-NH2
Summary of the method: as §2

BC2T K4P = target: T17, BC2T K4P; experiment: as above
T17 construct: positional scanning library member
T17 peptide: Ac-PDRPAAVSHWQQ-NH2
Summary of the method: as §2

B1: BC2 nanobody (VHH)
VHH: QVQLVESGGGLVQPGGSLTLSCTASGFTLDHYDIGWFRQAPGKEREGVSCINNSDDDTYYADSVKGRFTIFMDNAKDTVYLQMNSLKPEDTAIYYCAEARGCKRGRYEYDFWGQGTQVTVSS
notes: Alpaca VHH, 122 aa; also called BC2-Nb; BC2 nanotrap (BC2-Nb immobilized on agarose/Sepharose beads); not shown: C-terminal 6xHis-tag added by the pHEN6 vector
B1: no binding [1]; no binding [2]; no binding [3]. B1: no binding [4]; no binding [5]; no binding [6]. B1: no binding [7]; no binding [8]; no binding [9]. B1: no binding [10]; no binding [11]; no binding [12]. B1: no binding [13]; no binding [14].

B2: BC2-NbR106E (VHH)
VHH: QVQLVESGGGLVQPGGSLTLSCTASGFTLDHYDIGWFRQAPGKEREGVSCINNSDDDTYYADSVKGRFTIFMDNAKDTVYLQMNSLKPEDTAIYYCAEARGCKRGEYEYDFWGQGTQVTVSS
notes: headlock mutant of BC2-Nb; immobilised on beads in this assay
For B2, the ratio (BC2T A6P) was 1.1, the ratio (BC2T K4F) was 0.6 and the ratio (BC2T K4P) was 1.
